Results reported in article PMC8951219.

Tested on: MSA-R2c (p57, major soluble antigen, IPT-domain construct) (Renibacterium salmoninarum)
Test: plate binding assay with immobilized protein, bound aptamer quantified by qPCR
Conditions: 20 mM Tris-HCl pH 7.4, room temperature, 1 h; wells coated with 50 uL of 2.5 uM protein, 1% BSA block; aptamer 0.0205-41 nM, heated at 95 C for 5 min; no added …

ATGATACGGCGACCACCTAACCATTTTCACTGTTTGTTTAATATATATAGTTTTATGGTATAGCGTCGTGTAGGGAAAGA [Aptamer-4]
Kd: 3 nM
